Measurements published in patent US20140370037A1 (published 2014).

T1: human DLL3 antigen (human, UniProt Q9NYJ7 27-492, limits assumed)
T1 construct: also called immobilized human DLL3; recombinant human DLL3
T1 sequence (looked up): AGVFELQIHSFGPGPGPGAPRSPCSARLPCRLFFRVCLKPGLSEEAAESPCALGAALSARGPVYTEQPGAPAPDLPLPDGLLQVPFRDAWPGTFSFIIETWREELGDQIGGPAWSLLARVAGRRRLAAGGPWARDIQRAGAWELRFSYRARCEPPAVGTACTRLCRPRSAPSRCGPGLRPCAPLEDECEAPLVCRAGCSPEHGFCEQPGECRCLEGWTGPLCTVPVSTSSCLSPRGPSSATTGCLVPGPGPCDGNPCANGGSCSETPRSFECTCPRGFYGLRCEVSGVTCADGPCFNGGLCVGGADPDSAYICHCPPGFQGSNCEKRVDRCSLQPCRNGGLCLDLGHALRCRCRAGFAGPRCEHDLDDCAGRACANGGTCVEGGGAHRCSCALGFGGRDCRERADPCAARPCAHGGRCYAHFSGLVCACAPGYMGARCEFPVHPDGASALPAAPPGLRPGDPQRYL


Tests used:
human DLL3 antigen [1] = molecular target: T1, human DLL3 antigen; assay: SPR, Biacore 2000, human DLL3 antigen
Method: Various methods were used to analyze the binding and immunochemical characteristics of selected DLL3 modulators generated as set forth above. […] Affinities and kinetic constants kₒₙ and koff of the selected modulators were measured using bio-layer interferometry analysis on a ForteBio RED (ForteBio, Inc.) or surface plasmon resonance using a Biacore 2000 each according to the manufacturer's instructions.
(§1) In this respect the humanized constructs (CDR grafted) were compared with “traditional” chimeric antibodies comprising the murine parent (or donor) heavy and light chain variable domains and a human constant region substantially equivalent to that used in the humanized constructs. With these constructs surface plasmon resonance (SPR) was conducted using a Biacore 2000 (GE Healthcare) to identify any subtle changes in rate constants brought about by the humanization process.

human DLL3 antigen [2] = molecular target: T1, human DLL3 antigen; assay: SPR, Biacore 2000, 25 and 12.5 nM human DLL3 antigen, 1:1 Langmuir model
Method: as §1

binding result (human DLL3 antigen [1])	Kd (human DLL3 antigen [2])	Binder
binds		hSC16.34 (antibody, V domains shown, humanized (CDR grafted)) VH: QVQLVQSGAEVKKPGASVKVSCKASGYTFTNYGMNWVRQAPGQRLEWMGWINTYTGDPTYADDFKGRVTITRDTSASTAYMELSSLRSEDTAVYYCARIGGNSPSDYWGQGTTVTVSS VL: DIQMTQSPSSLSASVGDRVTITCKASQSVSNDVAWYQQKPGKVPKLLIYYASNRYSGVPSRFSGSGSGTDFTLTISSLQPEDVATYFCQQDYSSPWTFGGGTKVEIK
binds		hSC16.56 (antibody, V domains shown, humanized (CDR grafted)) VH: QVQLVQSGAEVKKPGASVKVSCKASGYTFTNYGMNWVRQAPGQGLEWMGWINTYTGEPTYADDFKGRVTMTTDTSTSTAYMELRSLRSDDTAVYYCARIGDSSPSDYWGQGTLVTVSS VL: EIVMTQSPATLSVSPGERATLSCKASQSVSNDVVWYQQKPGQAPRLLIYYASNRYTGIPARFSGSGSGTEFTLTISSLQSEDFAVYYCQQDYTSPWTFGQGTKLEIKR
binds		hSC16.15 (antibody, V domains shown, humanized (CDR grafted); also called humanized SC16.15) VH: QVQLVQSGAEVKKPGASVKVSCKASGYTFTRYWIHWIRQAPGQGLEWMGYINPTTVYTEFNQNFKDRVTMTRDTSTSTVYMELSSLRSEDTAVYYCARGGSNFFDYWGQGTTVTVSS VL: AIQLTQSPSSLSASVGDRVTITCRASENIYYNLAWYQQKPGKAPKLLIYTANSLEDGVPSRFSGSGSGTDFTLTISSLQPEDFATYFCKQAYDVPPTFGGGTKLEIK
	~0.2 nM	SC16.15 (antibody, V domains shown, murine mAb) VH: QVQLQQSGAELAKPGASVKMSCKASGYTFTRYWIHWIKQRPGQGLEWIGYINPTTVYTEFNQNFKDKATLTADKSSTTASMQLSSLTSEDSAVYYCARGGSNFFDYWGQGTTLTVSS VL: DIQMTQSPASLAASVGETVAITCRASENIYYNLAWYQQKQGKSPQLLIYTANSLEDGVPSRFSGSGSGTQYSLKINSMQPEDSATYFCKQAYDVPPTFGGGTKLEIK
